Measured values taken from patent US20250032629A1, “NOVEL NUCLEOLIN-BINDING PEPTIDE AND USE THEREOF” (ANYGEN CO., LTD., priority 2020, published 2025).
Ends that are not written are not given here.

Legend:
Cancer cells = assay: ELISA for the affinities of AGM-330 and its variants on cancer cells; format: cell-based; settings: biotin-conjugated PEGylated peptides, 2 hours, read at 450
Experimental: (§1) Then, avidin-HRP was attached through a high-affinity avidin-biotin interaction, and the TMB substrate was converted to blue through HRP enzyme. Then, the reaction was terminated by adding an acid, and the affinities of the 13 peptides were assessed by ELISA by reading the wells at […].
Cancer cells (1×10^4 cells/well) were cultured in 96-well plates for 24 hours. AGM-330 and the 12 PEGylated peptides shown Table 2 were biotin-conjugated, and the cells were treated with increasing concentrations of the 13 peptides for 2 hours.
as §1, with “Thereafter, avidin-HRP” for “Then, avidin-HRP”, “blue color” for “blue”

MCF-10A = assay: Whole-cell binding (cell-growth-on-bead) assay of screened peptide beads; format: cell-based, human
Experimental: (§2) Here, multiple breast and colorectal cancer cells and normal breast and colorectal cells were re-suspended at 10^6 cells/ml and incubated with beads. All experiments were repeated 3 times, and the scale bar is 200 μm. […] Here, nuclei were stained with DAPI (blue), and scale bar is 50 μm. […] Here, a whole-cell binding assay was performed to determine the cell binding of AGM-330, and the scale bar is 200 μm. […] Fmoc=9-fluorenylmethoxycarbonyl, DMF=dimethylformamide. […] Here, bar graphs represent the mean±SD, and statistical analyses were performed by one-way ANOVA with Dunnett's multiple comparison. *, **, and *** indicate P<0.05, P<0.01, and P<0.001, respectively.
(§3) The beads were washed extensively with double-distilled water and phosphate-buffered saline (PBS; Welgene Inc., Korea) before screening. Cancer cells and normal cells were detached from culture dishes with trypsin/EDTA (Gibco), washed with their corresponding culture medium, resuspended at 10^6 cells/ml, and incubated with OBOC beads in Petri dishes in a humidified CO2 incubator at 37° C. with shaking (60 rpm). Beads bound by cells appeared under a microscope as rosettes with a central bead covered by one or more layers of cells. The positive beads were picked by pipette under an inverted microscope, treated with guanidine-HCL (8 M, 20 min) to remove cells and proteins on the bead surface, and subjected to a second round of screening with normal breast epithelial cells to eliminate false positive binding. Only beads with cell binding at both rounds were sent for peptide sequencing.
(§4) To identify a novel cancer-specific peptide ligand, the present inventors synthesized about 2, 600,000 libraries using 5 g of Tentagel MB NH2 resin (200 μm, 520,000 beads/g; FIG. 3).

MDA-MB-231 = assay: as above; format: cell-based, human
Experimental: as §2, §3, §4

MCF-10A and CCD-18Co = assay: Cell-growth-on-bead assay, normal cell lines; format: cell-based, human
Experimental: as §2, §3, §4

NCL = NCL (Homo sapiens, UniProt P19338); assay: siRNA-mediated knockdown of NCL (real-time PCR, Western blot); format: cell-based
[1] = molecular target: T1, membrane nucleolin (NCL) on cancer cells (human, UniProt P19338 2-710); assay: cell ELISA: biotin-conjugated PEGylated peptide on cancer cells (cell line not given), 2 h, avidin-HRP/TMB, absorbance at 450 nm
T1 construct: whole, on cells; also called membrane NCL; membrane-expressed NCL
Experimental: as §1, with “Cancer cells (1×10⁴ cells/well) were seeded in 96-well plates and cultured for 24 hours, and then the cells were treated with increasing concentrations of 13 biotin-conjugated peptides for 2 hours. Then, avidin-HRP” for “Then, avidin-HRP”
Cancer cells (1×10⁴ cells/well) were cultured in 96-well plates for 24 hours. AGM-330 and the 12 PEGylated peptides shown Table 2 were biotin-conjugated, and the cells were treated with increasing concentrations of the 13 peptides for 2 hours.
as §1, with “Thereafter, avidin-HRP” for “Then, avidin-HRP”, “blue color” for “blue”

T1 sequence (P19338 2-710): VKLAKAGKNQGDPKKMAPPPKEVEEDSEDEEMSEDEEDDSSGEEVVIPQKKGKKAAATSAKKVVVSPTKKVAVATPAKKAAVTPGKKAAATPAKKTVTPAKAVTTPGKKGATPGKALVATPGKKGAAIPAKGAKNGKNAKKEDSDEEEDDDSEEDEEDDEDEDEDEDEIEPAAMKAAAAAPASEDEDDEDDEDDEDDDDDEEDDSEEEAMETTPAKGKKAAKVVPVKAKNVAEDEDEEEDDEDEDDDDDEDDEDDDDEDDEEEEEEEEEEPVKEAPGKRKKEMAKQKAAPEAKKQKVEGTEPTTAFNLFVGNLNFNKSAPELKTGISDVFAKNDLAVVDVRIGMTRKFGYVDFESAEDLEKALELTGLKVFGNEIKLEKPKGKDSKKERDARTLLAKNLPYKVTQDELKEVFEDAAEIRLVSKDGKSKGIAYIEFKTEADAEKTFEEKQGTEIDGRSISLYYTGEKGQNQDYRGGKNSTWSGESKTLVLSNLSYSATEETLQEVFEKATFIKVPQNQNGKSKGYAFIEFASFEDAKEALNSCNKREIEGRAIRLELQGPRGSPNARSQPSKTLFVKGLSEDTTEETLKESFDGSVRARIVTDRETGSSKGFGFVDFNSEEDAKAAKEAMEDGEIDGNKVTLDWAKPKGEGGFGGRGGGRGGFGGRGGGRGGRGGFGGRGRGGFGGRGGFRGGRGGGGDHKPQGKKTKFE
Sequence of NCL (P19338 whole entry): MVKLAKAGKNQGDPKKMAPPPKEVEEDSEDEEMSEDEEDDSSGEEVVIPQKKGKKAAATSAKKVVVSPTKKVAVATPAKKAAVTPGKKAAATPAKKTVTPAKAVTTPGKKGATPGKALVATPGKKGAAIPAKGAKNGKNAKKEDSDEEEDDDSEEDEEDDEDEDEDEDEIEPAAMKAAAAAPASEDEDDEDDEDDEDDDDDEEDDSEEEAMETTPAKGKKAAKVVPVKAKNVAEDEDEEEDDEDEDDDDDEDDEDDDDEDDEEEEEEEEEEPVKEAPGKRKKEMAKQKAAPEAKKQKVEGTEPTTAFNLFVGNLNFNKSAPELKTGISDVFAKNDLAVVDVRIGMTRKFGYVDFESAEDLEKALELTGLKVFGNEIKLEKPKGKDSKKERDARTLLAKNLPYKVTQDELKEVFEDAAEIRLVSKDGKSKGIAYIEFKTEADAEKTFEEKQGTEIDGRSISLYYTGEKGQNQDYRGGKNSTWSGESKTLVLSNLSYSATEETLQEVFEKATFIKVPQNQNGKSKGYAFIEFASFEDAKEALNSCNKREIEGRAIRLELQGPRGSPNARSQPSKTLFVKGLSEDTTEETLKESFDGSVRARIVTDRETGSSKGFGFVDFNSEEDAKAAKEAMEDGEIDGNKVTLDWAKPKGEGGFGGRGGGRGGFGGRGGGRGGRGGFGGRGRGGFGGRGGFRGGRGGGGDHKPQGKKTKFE

## RHGA(Nle)VYLK (RHGAXVYLK; norleucine at position 5; AGM-330; Xaa can be any naturally occurring amino acid) [SEQ ID NO: 13]
Cancer cells
  absorbance (binding affinity) compared with AGM-330: higher absorbance than AGM-330

## ADHRHRRSG (AGM-331)
MCF-10A
  binding to the human normal breast cell line MCF-10A: no or only weak binding
MDA-MB-231
  binding to MDA-MB-231: strong preferential binding
MCF-10A and CCD-18Co
  binding to normal cell lines MCF-10A and CCD-18Co: relatively nonspecific and bound

## RHGALVYLK (not fully specified) [SEQ ID NO: 12, AGM-330 variant, tested PEGylated and biotin-conjugated]
Cancer cells
  absorbance (binding affinity) compared with AGM-330: higher absorbance than AGM-330

## AVARARRRR (AGM-332)
MCF-10A
  binding to the human normal breast cell line MCF-10A: no or only weak binding
MDA-MB-231
  binding to MDA-MB-231: strong preferential binding
MCF-10A and CCD-18Co
  binding to normal cell lines MCF-10A and CCD-18Co: relatively nonspecific and bound

## siNCL1: siRNA targeting NCL, sense 5′-GAGCUAACCCUUAUCUGUA(dTdT)-3′ (SEQ ID NO: 21/22) (antisense UACAGAUAAGGGUUAGCUC; dTdT overhangs, further chemistry not given here)
NCL; MDA-MB-231 cells, among siNCL1, siNCL2, siNCL3
  NCL knockdown efficacy (mRNA): highest knockdown efficacy
NCL; siNCL1-treated cells
  basal expression of NCL in cytosolic and cell membrane fractions (Western blotting): potently inhibited

## RHGAMVFLK (not fully specified) [SEQ ID NO: 15, AGM-330 variant, tested PEGylated and biotin-conjugated]
Cancer cells
  absorbance (binding affinity) compared with AGM-330: higher absorbance than AGM-330

## RHGAMVYLKLKLK (not fully specified) [SEQ ID NO: 20, AGM-330 variant, tested PEGylated and biotin-conjugated]
Cancer cells
  absorbance (binding affinity) compared with AGM-330: higher absorbance than AGM-330

B1: AGM-330 variant L10K11L12K13 → Insertion (SEQ ID NO: 20) (peptide)
peptide: RHGAMVYLKLKLK
modifications: also: PEGylated, biotin-conjugated (sites not given here)
[1]
  binding result: binds

B2: AGM-330 variant R1H2 → Deletion (SEQ ID NO: 16) (peptide)
peptide: GAMVYLK
modifications: also: PEGylated, biotin-conjugated (sites not given here)
notes: also called GAMVYLK
[1]
  binding result: binds

B3: AGM-330 variant M5 → Nle5 (SEQ ID NO: 13) (peptide)
peptide: RHGAXVYLK
modifications: norleucine (Nle) at position 5; PEGylated; biotin-conjugated (sites not given)
notes: also called RHGA(Nle)VYLK
[1]
  binding result: binds

B4: AGM-330 variant Reverse sequence (SEQ ID NO: 19) (peptide)
peptide: KLYVMAGHR
modifications: also: PEGylated (site not given here), biotin-conjugated (site not given here)
[1]
  binding result: binds

B5: AGM-330 variant A4 → L4 (SEQ ID NO: 11) (peptide)
peptide: RHGLMVYLK
modifications: also: PEGylated, biotin-conjugated (sites not given here)
[1]
  EC50 (read off the curve): ~2000 nM

B6: AGM-330 variant H2 → R2 (SEQ ID NO: 10) (peptide)
peptide: RRGAMVYLK
modifications: also: PEGylated, biotin-conjugated (sites not given here)
[1]
  EC50 (read off the curve): ~2000 nM

B7: AGM-330 variant M5 → L5 (SEQ ID NO: 12) (peptide)
peptide: RHGALVYLK
modifications: also: PEGylated, biotin-conjugated (sites not given here)
[1]
  EC50 (read off the curve): ~2000 nM

B8: AGM-330 variant R1 → K1 (SEQ ID NO: 9) (peptide)
peptide: KHGAMVYLK
modifications: also: PEGylated, biotin-conjugated (sites not given here)
[1]
  EC50 (read off the curve): ~2000 nM

B9: AGM-330 variant V6 → A6 (SEQ ID NO: 14) (peptide)
peptide: RHGAMAYLK
modifications: also: PEGylated (site not given here), biotin-conjugated (site not given here)
[1]
  EC50 (read off the curve): ~2000 nM

B10: AGM-330 variant Y7 → F7 (SEQ ID NO: 15) (peptide)
peptide: RHGAMVFLK
modifications: also: PEGylated (site not given here), biotin-conjugated (site not given here)
[1]
  EC50 (read off the curve): ~2000 nM

B11: AGM-330 variant R1H2 → Insertion (SEQ ID NO: 17) (peptide)
peptide: RHRHGAMVYLK
modifications: also: PEGylated, biotin-conjugated (sites not given here)
[1]
  binding result: binds

B12: AGM-330 variant R1H2R3H4 → Insertion (SEQ ID NO: 18) (peptide)
peptide: RHRHRHGAMVYLK
modifications: also: PEGylated (site not given here), biotin-conjugated (site not given here)
[1]
  EC50 (read off the curve): ~2000 nM

B13: Biotinylated AGM-330 (peptide)
peptide: RHGAMVYLK
modifications: also: biotin-conjugated (site not given here)
notes: Bait of the pull-down assays; also called AGM-330-biotin; AGM-330-Biotin
[1]
  EC50 (read off the curve): ~2000 nM
